Results published in patent US20230226096A1 (Orna Therapeutics, Inc., priority 2020, published 2023).

B1: SAV P-113 (nucleic acid)
DNA: GGAGATCTAAGTCAACCGACTCCGACGAAACTACCATCATGCCTCCCCGATTATGTGATGCTTTCTGCCCTGCTGGGTGGAGCATCCTCGGGTTGAGAAAACCTTCTTCCTTTTTCCTTGGACCCCGGTCCCCCGGTCTAAGCCGCTTGGAATAAGACAGGGTTATCTTCACCTCTTCCTTCTTCTACTTCATAGTGTTCTATACTATGAAAGGGTATGTGTCGCCCCTTCCTTCTTTGGAGAACACGCGCGGCGGTCTTTCCGTCTCTCGAAAAGCGCGTGTGCGACATGCAGAGAACCGTGAAGAAAGCAGTTTGCGGACTAGCTTTAGTGCCCACAAGAAAACAGCTGTAGCGACCACACAAAGGCAGCGGACCCCCCCTCCTGGCAACAGGAGCCTCTGCGGCCAAAAGCCACGTGGATAAGATCCACCTTTGTGTGCGGCACAACCCCAGTGCCCTGGTTTCTTGGTGACACTTCAGTGAAAACGCAAATGGCGATCTGAAGCGCCTCTGTAGGAAAGCCAAGAATGTCCAGGAGGTACCCCTTCCCTCGGGAAGGGATCTGACCTGGAGACACATCACATGTGCTTTACACCTGTGCTTGTGTTTAAAAATTGTCACAGCTTTCCCAAACCAAGTGGTCTTGGTTTTCACTCTTTAAACTGATTTCACT
B2: Cosavirus B1 (nucleic acid, listed as Cosavirus sp.)
DNA: CGTGCTTTACACGGTTTTTGAACCCCACACCGGCTGTTTGGCGCTTGCAGGACAGCAGGTTTATTTTCTTTTAACTCTCTCTTTCTAGCCACACACGATCTATGTGTGTGGGCGGAGTGATACTCCCGTTCCTTCTTGGACAGGCGGCCTCCACGCCCTTTGTGGATCTTAAGGCTACCAAGTCACTGGTGTTGGAAAGTGAAGAGAAAGGAGTTCCTTGGGAACTACATGTGGCATTGACAGAGGTTGTAGCGATGCTGTGTGTGTGTGCGGATTACCCCCGTGGCGACACGGACCCCACAGGCCAAAAGCCCTGTCCGAAAGGACCCACACAGTGGAGCAACCCCAGCTCCCCTCTTCAATGTTTTGTGTTAGCAACCTTGGTATTATTTTCTCTCAAGCTTCCAATACACCGGGCCCCAAAGATGTCCTGAAGGTACCCCGTGTATCTGAGGATGAGCACCATCAACTACCCGGACTTGTTCTTTCGAGAACAGACGCATGTGGTAACCCAGCCCCGATCCTAAGGGGTCGGGGCTTTTGCTCACTCAGCACAGGATCTGATCAGGAGACCTCCCCCCCCTGCTTTACAGGGGGCGGGGGTTTAAAAATTGCCCAAGGCCTGGCAAATAACCTAGGGGACTAGGTTTTCCTTTTTATTTTAAAGTTGTCAAT
B3: VHEV (nucleic acid)
DNA: AATTCCTTCTTCCTTTCTCCTTGGACCTCGGTCCCCCGGTCTAAGCCGCTCGGAATATGACAGGGTTATTTTCACCTCTTCTCTCTTCTACTTCATAGTGTTCTATACTATGAAAGGGTATGTGTCGCCCCTTCCTTCTTGGAGAACGTGCGTGGCGGTCTTTCCGTCTCTCGAAAAACGTGCGTGCGACATGCAGAGTAACGCAAAGAAAGCAGTTCTTGGTCTAGCTCTGGTGCCCACAAGAAAACAGCTGTAGCGACCACACAAAGGCAGCGGAAACCCCCTCCTGGTAACAGGAGCCTCTGCGGCCAAAAGCCACGTGGATAAGATCCACCTTTGTGTGCGGTGCAACCCCAGCACCCTGGTTTCTTGGTGACACCTTAGTGAACCCTCGAATGGCAATCTCAAGCGCCTCTGTAGGAAAGCCAAGAATGTCCAGGAGGTACCCCTTCCTCATGGAGGGATCTGACCTGGAGACACATCACACGTGCTATACACTTGTGCTTGTGTTTAAAAATTGTCACAGCTTTCCCAAACCAAGTGGTCTTGGTTTTCCCTTAACTTCGAAAAGTCACTATGGCCTGCAAACATGGATACCCAGACGTGTGCCCT
B4: TRV NGS910 (nucleic acid)
DNA: ATGCGACGTGGTTGGAGATTAAACCGACTCCGACGAAAGTGCTATCATGCCTCCCCGATTATGTGATGTTTTCTGCCCTGCTGGGCGGAGCATTCTCGGGTTGATACACCTTGAATCCTTCATCCTTGGACCTCAGGTCCCCCGGTCTAAGCCGCTTGGAATACGACAGGGTTATTTTCCAATCTTCTCCTTTCTACTTTCATGAGTCCTATTCATGAAAAGGGTCTGTGCTGCCCCTTCCTTCTTGGAGAATCTGCGCGGCGGTCTTTCCGTCTCTCGAAAAGCGCAGATGCAGCATGCTGGAACCGGTGAAGAAAACAGTTCTTTGTGGAAACTTAGAGCAGACATCGAAACAGCTGTAGTGACCTCACAGTAGCAGCGGAACCCCCTCCTGGTAACAGGAGCCTCTGCGGCCAAAAGCCCCGTGGATAAGATCCACTGCTGTGAGCGGTGCAACCCCAGCACCCTGGTTCGATGGTTGTTCTCTGTGGAACCAGAGAATGGTCTTTCTCAAGCCCTCCAGTAGAGAAGCCAAGAATGTCCTGAAGGTACCCCGCATGCGGGATCTGATCAGGAGACCAATCGTCAGTGCTTTACACTGGCGCTTTGGTTTAAAAACTGTCACAGCTTCTCCAAACCAAGTGGTCTTGGTTTTCACTTTTATCAAACTGTTTC
B5: EMCV2 RD1338 (nucleic acid)
DNA: AAATACTGGTCGAAACCGCTTGGGATAAGACCGGGGTTTGTTAATGTCTCAATGTTATTCTCCACCCAATTGACGTCTTTTGTCAATTGGAGGGCAGTGAAACCTTGCCCTTGCTTCTTGCAGAGGATTCCCAGTGGTCTTTCCGCTCTCGACAAGGGAATTCATGATCCACCAAAAGTTGTGAAGAGAGCAGGTCCCATGGAAGCTTTCTGACGACTGATGATGACTGTAGCGACCCTTTGCAGGCAGCGGACCCCCCCACCTGGTGACAGGTGCCTCTGCGGCCAAAAGCCACGTGTTTAACAGACACCTGCAAAGGCGGCACAACCCCAGTGCCTCATCAAAAGTCTGATGACTGTGGAAATAGTCAACCGGCTTTTCTTAAGCAAATTTGGTGTCGGGGCTGAAGGATGCCCGGAAGGTACCACACTGGTTGTGATCTGATCCGGGGCCACAGTACATGTGCTTTACACATGTAGCTGCGGTTAAAAAACGTCTAGGCCCCCCGAACCACGGGGACGTGGTTTTCCTTTGAAAACCACGATTACAAT
B6: Cosavirus D1 (nucleic acid, listed as Cosavirus sp.)
DNA: CGTGCTTTACACGGTTTTTGAACCCCACACCGGCTGTTTGGCGCTTGCAGGACAGTAGGTATATTTTCTTTCATTTCTCTTTTCTAGCCGCGTAGGTTCTATCTACGCGGGCGGAGTGATACTCCCGCTCCTTCTTGGACAGGCGGCCTCCACGCTCTTTGTGGATCTTAAGGCTGCCAAGTCACTGGTGTTTGAAGTGAAGAATGGAGAGACACTAGGGCGTTTCATGTGGCTTTGCCAGGGATTGTAGCGATGCTGTGTGTGTGTGCGGATTTCCCCTCGTGGCGACACGAGCCTCACAGGCCAAAAGCCCTGTCCGAAAGGACCCACACAGTGGGGTTGCCCCGACCCCTCCCTTCAAAGCTTTGTGTAAACAAACTTTTGTTTAGACTTTCTTAAGCTTCTCTCACATCAGGCCCCAAAGATGTCCTGAAGGTACCCTGTGTATCTGAGGATGAGCACCACCAACTACCCGGACTTGTGGGACGTGTCCCACAGACGCATGTGGTATTCCAGCCCCCTCCTTTTGAGGAGGGGGCTTTTGCTCGCTCAGCACAGGATCTGATCAGGAGATTCATCTCTGGTGCTTTACACCAGAGCATGGATTTAAAAATTGCCCAAGGCCTGGCAAACAACCTAGGGGACTAGGTTTTCTCTATTTTAAAAGATGTCAAT
B7: REV A (nucleic acid, listed as Reticuloendotheliosis virus)
DNA: GGGGTCGCCGTCCTACACATTGTTGTGACGTGCGGCCCAGATTCGAATCTGTAATAAAAGCTTTTTCTTCTATATCCTCAGATTGGCAGTGAGAGGAGATTTTGTTCGTGGTGTTGGCTGGCCTACTGGGTGGGGTAGGGATCCGGACTGAATCCGTAGTATTTCGGTACAACATTTGGGGGCTCGTCCGGGATTCCTCCCCATCGGCAGAGGTGCCTACTGTTTCTTCGAACTCCGGCGCCGGTAAGTAAGTACTTGATTTTGGTACCTCGCGAGGGTTTGGGAGGATCGGAGTGGCGGGACGCTGCCGGGAAGCTCCACCTCCGCTCAGCAGGGGACGCCCTGGTCTGAGCTCTGTGGTATCTGATTGTTGTTGAACCGTCTCTAAGACGGTGATACTATAAGTCGTGGTTTGTGTGTTTGTTTGTTACCTTGTGTTTGTTCGTCACTTGTCGACAGCGCCCTGCGAATTGGTGTACCCACACCGCGCGGCTTGCGAATAATACTTTGGAGAGTCTTTTGCCTCCAGTGTCTTCCGTTTGTACTCGTCCTCCTCTCCCTCTCCGGCCGGGATGGG
B8: EMCV1 AnrB-3741 (nucleic acid)
DNA: ATGTGGTCGAAGCCACTTGGAATAAGACCGGCGTGCGCTTGTCTATATGTTACTTCCACCACATTGCCGTCTTTTGGCAATGTGAGGGCCCGGAACCTGGCCCTGTCTTCTTGACGAACATTCCTAGGGGACTTTCCCCTCTCGCCAAAGGAATGTAAGGTCTGTTGAATGTCGTGAAGGAAGCAGTTCCTCTGGAAGCTTCTTGAAGACAAACAGCGTCTGTAGCGACCCTTTGCAGGCAGCGGAACCCCCCACCTGGTAACAGGTGCCTCTGCGGCCGAAAGCCACGTGTATAAGATACACCTGCAAAGGCGGCACAACCCCAGTGCCACGTTGTGCGTTGGATAGTTGTGGAAAGAGTCAAATGGCTTTCCCCAAGCGTATTCAACAAGGGGCTGAAGGATGCCCAGAAGGTACCCCACTGGTTGGGATCTGATCTGGGGCCTCGGTGCAGGTGCTTTACACCTGTTGAGTCGAGGTTAAAAAACGTCTAGGCCCCCCGAACCACGGGGACGTGGTTTTCCTAGAAAACCACTATGACAAT
B9: Cosavirus A SH1 (nucleic acid)
DNA: CCGTGCTTTACACGGTTTTTGAACCCCACACCGGCTGTTTGGCGCTTGCAGGACAGCAGGTTTATTTTCTTATGCTCTTTATTTCTAGCCAACAGGGTTCTATCCTGTTGGGCGGAGTGATACTCCCGTTCCTTCTTGGACAGATTGCCTCCACGATCTTTGTGGATCTCAAGGTGATCAAGTCACTGGTAAATAGAGCGAAGGTTGAGGAAACCTGAGGAATTTCCATGTGGTTTTGCCAGGAGTTGTAGCGATGCTGTGTGTGTGTGCGGATTTCCCCTCATGGCAACATGAGCCTCACAGGCCAAAAGCCCTGTCCGAAAGGACCCACACAGTGGAGCAATCCCAGCTCCCTCCTACAAAGCTTTGTGAGAATGAACTCACGTTTATTCTTCTTTATTCTCTGTTTACATCAGGCCCCAAAGATGTCCTGAAGGTACCTTGTGTATCTGGGCATGAGCACCATCAACTACCCGGACTTGCATTTCGGTGCAGACACATGTGGTTACCCAGCCCCTCTGCTTTGGCAGAGGGGCTTTTGCTCGCTCAGCACGAGATCTGATCAGGAGCCCTTCCCAGTGTGCTTTACACCTGGCGGGGGGTTAAAAATTGCCCAAGGCCTGGCAAAATAACCTAGGGGACTAGGTTTTCCTTTTATTAACAATGTCTGTCATT
modifications: Cosavirus A

test system: HEK293 cells; format: cell-based, human; details: luminescence from secreted Gluc in supernatant 24 hours after transfection of HEK293 cells; circular RNA encoding Gluc with the named IRES (UTR truncated to 675 nt)

Compared with B1, B2 is lower in Expression: 4.37E+07 for the first, 1.91E+06 for the second.

First: B3
Second: B4
The Expression of the first is higher: 1.74E+08 for the first, 3.84E+07 for the second.

Going from B5 to B6, the Expression rises from 1.97E+06 to 2.11E+06.

Compared with B7, B8 is higher in Expression: 9.44E+04 for the first, 2.55E+06 for the second.

For B9, the Expression was 2.16E+06.
